For 1 substance, per cent conjugation results are on record in PMC9961482.

The experiment has as its target Encapsulin–SpyTag (Myxococcus xanthus | Streptococcus pyogenes) (UniProt Q1D6H4). As to the kind of experiment: reducing SDS-PAGE + SEC.

Sequence of Encapsulin–SpyTag (Myxococcus xanthus | Streptococcus pyogenes) (Q1D6H4 1-287, tags left off): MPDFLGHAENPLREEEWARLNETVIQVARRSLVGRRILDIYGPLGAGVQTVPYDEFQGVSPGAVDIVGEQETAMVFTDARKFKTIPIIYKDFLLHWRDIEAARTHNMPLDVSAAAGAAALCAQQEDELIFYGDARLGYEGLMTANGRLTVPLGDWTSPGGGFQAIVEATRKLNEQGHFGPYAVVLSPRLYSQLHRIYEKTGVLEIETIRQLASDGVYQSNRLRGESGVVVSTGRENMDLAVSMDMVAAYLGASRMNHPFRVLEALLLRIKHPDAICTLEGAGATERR

Regarding “mRBD–SpyCatcher (from UniProt P0DTC2 332-532)”, the per cent conjugation was found to be 90 per cent.
